Measured values as given in patent US20220119490A1 (Genentech, published 2022).

Columns and labels:
PTPRD expressed on cells = target: T1, PTPRD expressed on cells (human, UniProt P23468 21-1912); assay: cell surface interaction assay: streptavidin-tetramerized biotinylated ECD on transfected cells, immunofluorescence
T1 construct: whole, on cells; also called receptor-type tyrosine-protein phosphatase delta

PTPRS expressed on cells = target: T2, PTPRS expressed on cells (human, UniProt Q13332 30-1948); assay: as above
T2 construct: whole, on cells; also called receptor-type tyrosine-protein phosphatase S

PTPRG expressed on cells = target: T3, PTPRG expressed on cells (human, UniProt P23470 20-1445); assay: cell surface interaction assay: query ECD tetramerised with fluorescent streptavidin on transfected cells, immunofluorescence
T3 construct: whole, on cells

PTPRM expressed on cells = target: T4, PTPRM expressed on cells (human, UniProt P28827 21-1452); assay: as above
T4 construct: whole, on cells

PTPRO expressed on cells = target: T5, PTPRO expressed on cells (human, UniProt Q16827 30-1216); assay: as above
T5 construct: whole, on cells
T5 sequence (looked up): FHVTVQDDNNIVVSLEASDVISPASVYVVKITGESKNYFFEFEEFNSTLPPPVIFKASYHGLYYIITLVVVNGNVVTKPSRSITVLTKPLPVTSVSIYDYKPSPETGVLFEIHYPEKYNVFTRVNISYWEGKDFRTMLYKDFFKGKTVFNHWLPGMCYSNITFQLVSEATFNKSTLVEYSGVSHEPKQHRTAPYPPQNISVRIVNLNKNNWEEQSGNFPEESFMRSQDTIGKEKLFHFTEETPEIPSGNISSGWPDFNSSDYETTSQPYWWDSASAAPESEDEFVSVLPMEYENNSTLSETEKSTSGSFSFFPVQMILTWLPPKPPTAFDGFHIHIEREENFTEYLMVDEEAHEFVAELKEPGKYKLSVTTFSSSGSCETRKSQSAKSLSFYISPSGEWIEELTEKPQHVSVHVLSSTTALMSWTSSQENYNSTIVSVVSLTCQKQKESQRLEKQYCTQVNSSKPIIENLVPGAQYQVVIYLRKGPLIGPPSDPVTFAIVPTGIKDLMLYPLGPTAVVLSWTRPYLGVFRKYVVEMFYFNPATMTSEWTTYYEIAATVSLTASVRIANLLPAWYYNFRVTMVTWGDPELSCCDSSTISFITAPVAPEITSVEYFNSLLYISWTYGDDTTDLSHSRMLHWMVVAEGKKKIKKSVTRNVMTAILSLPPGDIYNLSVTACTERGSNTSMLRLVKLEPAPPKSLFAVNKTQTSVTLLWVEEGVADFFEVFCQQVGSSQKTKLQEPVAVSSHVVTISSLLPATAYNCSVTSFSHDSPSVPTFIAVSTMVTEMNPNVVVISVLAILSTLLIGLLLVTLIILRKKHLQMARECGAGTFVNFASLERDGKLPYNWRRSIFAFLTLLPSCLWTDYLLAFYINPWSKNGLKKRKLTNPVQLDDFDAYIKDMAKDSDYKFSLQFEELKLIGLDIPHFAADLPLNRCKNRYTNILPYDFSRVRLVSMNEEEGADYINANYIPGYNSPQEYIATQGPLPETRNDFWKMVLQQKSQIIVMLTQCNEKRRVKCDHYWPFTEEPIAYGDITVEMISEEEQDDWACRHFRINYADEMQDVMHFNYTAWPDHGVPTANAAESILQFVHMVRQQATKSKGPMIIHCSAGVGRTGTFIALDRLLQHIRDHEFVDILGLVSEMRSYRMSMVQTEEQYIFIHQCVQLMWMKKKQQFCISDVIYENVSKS

[1] = target: T6, PTPRZ1 expressed on cells (human, UniProt P23471 25-2315); assay: as above
T6 construct: whole, on cells

PTPRF expressed on cells = target: T7, PTPRF expressed on cells (human, UniProt P10586 30-1907); assay: as above
T7 construct: whole, on cells; also called receptor-type tyrosine-protein phosphatase F

PTPRT expressed on cells = target: T8, PTPRT expressed on cells (human, UniProt O14522 26-1441); assay: as above
T8 construct: whole, on cells
T8 sequence (looked up): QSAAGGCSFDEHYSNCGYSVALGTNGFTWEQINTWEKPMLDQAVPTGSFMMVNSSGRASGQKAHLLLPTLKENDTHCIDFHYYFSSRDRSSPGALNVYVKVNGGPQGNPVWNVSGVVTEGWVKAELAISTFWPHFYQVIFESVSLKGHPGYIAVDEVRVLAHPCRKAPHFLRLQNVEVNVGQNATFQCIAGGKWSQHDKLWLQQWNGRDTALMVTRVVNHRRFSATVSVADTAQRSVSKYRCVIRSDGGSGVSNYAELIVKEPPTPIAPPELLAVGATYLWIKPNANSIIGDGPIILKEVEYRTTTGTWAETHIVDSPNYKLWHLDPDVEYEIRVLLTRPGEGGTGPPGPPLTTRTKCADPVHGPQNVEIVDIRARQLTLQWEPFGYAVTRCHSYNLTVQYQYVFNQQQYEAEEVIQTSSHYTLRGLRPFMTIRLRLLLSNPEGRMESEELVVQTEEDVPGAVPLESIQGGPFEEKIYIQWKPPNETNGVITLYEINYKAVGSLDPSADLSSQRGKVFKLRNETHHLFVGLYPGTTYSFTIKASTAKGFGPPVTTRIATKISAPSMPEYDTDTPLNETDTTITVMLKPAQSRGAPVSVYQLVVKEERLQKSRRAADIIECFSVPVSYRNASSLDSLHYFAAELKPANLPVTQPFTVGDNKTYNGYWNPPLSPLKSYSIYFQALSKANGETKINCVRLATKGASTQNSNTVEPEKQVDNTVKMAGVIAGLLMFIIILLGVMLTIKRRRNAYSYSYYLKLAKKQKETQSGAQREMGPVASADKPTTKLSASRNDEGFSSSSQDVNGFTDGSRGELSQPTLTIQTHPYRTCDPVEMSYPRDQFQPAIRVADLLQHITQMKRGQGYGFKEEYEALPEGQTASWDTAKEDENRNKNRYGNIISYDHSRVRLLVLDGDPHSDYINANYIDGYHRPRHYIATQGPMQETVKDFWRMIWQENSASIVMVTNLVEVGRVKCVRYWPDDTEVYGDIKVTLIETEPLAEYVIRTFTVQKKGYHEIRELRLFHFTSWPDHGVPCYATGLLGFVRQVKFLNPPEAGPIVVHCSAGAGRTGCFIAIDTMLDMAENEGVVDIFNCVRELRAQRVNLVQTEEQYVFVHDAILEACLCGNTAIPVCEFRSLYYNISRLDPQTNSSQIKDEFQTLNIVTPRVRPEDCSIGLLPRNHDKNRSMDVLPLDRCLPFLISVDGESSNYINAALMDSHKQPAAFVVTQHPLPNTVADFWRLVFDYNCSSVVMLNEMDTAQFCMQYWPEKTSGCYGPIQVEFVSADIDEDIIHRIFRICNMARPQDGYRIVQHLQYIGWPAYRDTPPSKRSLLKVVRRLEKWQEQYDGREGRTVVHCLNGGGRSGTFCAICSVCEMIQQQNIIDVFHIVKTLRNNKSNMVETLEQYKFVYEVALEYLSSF

[2] = target: T9, LRRC4B expressed on cells (human, UniProt Q9NT99 36-713); assay: as above
T9 construct: whole, on cells; C-terminally tagged in the co-IP; also called NGL-3; LRRC4B-FLAG
T9 sequence (looked up): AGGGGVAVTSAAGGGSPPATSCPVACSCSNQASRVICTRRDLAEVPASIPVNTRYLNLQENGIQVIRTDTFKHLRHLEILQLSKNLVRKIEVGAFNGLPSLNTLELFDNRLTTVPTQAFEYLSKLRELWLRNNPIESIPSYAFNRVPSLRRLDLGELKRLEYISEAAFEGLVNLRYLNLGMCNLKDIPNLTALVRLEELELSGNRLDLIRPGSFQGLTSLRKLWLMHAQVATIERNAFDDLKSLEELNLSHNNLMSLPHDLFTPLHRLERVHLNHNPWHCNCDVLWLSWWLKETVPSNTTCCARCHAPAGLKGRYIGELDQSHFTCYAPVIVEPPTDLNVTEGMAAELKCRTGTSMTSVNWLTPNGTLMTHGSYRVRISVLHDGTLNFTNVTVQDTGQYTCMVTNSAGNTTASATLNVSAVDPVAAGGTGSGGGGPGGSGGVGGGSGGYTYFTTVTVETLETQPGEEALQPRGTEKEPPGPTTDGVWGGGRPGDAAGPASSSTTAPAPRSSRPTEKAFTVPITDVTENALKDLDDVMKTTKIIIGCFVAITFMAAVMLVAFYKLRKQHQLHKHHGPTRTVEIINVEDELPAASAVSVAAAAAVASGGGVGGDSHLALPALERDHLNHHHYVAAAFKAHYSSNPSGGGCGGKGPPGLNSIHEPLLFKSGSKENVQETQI

[3] = target: T10, BTN3A1 full-length (co-IP) (human, UniProt O00481 30-513); assay: co-immunoprecipitation from co-transfected cells, IP anti-FLAG, western blot anti-HA
T10 construct: whole, on cells; also called BTN3A1-HA
T10 sequence (O00481 30-513): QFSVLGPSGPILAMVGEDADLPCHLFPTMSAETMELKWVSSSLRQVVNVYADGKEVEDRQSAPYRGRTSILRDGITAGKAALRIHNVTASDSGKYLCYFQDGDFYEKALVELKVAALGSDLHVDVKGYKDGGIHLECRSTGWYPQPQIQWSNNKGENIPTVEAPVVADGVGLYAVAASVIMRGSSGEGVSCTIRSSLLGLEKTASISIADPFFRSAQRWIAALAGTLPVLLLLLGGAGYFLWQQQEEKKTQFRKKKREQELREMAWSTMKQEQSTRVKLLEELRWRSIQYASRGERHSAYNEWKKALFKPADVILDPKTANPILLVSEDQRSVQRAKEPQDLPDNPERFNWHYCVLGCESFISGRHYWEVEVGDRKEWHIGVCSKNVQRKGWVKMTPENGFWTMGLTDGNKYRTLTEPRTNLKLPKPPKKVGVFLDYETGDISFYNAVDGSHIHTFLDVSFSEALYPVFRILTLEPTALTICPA

T6 sequence (P23471 25-2315): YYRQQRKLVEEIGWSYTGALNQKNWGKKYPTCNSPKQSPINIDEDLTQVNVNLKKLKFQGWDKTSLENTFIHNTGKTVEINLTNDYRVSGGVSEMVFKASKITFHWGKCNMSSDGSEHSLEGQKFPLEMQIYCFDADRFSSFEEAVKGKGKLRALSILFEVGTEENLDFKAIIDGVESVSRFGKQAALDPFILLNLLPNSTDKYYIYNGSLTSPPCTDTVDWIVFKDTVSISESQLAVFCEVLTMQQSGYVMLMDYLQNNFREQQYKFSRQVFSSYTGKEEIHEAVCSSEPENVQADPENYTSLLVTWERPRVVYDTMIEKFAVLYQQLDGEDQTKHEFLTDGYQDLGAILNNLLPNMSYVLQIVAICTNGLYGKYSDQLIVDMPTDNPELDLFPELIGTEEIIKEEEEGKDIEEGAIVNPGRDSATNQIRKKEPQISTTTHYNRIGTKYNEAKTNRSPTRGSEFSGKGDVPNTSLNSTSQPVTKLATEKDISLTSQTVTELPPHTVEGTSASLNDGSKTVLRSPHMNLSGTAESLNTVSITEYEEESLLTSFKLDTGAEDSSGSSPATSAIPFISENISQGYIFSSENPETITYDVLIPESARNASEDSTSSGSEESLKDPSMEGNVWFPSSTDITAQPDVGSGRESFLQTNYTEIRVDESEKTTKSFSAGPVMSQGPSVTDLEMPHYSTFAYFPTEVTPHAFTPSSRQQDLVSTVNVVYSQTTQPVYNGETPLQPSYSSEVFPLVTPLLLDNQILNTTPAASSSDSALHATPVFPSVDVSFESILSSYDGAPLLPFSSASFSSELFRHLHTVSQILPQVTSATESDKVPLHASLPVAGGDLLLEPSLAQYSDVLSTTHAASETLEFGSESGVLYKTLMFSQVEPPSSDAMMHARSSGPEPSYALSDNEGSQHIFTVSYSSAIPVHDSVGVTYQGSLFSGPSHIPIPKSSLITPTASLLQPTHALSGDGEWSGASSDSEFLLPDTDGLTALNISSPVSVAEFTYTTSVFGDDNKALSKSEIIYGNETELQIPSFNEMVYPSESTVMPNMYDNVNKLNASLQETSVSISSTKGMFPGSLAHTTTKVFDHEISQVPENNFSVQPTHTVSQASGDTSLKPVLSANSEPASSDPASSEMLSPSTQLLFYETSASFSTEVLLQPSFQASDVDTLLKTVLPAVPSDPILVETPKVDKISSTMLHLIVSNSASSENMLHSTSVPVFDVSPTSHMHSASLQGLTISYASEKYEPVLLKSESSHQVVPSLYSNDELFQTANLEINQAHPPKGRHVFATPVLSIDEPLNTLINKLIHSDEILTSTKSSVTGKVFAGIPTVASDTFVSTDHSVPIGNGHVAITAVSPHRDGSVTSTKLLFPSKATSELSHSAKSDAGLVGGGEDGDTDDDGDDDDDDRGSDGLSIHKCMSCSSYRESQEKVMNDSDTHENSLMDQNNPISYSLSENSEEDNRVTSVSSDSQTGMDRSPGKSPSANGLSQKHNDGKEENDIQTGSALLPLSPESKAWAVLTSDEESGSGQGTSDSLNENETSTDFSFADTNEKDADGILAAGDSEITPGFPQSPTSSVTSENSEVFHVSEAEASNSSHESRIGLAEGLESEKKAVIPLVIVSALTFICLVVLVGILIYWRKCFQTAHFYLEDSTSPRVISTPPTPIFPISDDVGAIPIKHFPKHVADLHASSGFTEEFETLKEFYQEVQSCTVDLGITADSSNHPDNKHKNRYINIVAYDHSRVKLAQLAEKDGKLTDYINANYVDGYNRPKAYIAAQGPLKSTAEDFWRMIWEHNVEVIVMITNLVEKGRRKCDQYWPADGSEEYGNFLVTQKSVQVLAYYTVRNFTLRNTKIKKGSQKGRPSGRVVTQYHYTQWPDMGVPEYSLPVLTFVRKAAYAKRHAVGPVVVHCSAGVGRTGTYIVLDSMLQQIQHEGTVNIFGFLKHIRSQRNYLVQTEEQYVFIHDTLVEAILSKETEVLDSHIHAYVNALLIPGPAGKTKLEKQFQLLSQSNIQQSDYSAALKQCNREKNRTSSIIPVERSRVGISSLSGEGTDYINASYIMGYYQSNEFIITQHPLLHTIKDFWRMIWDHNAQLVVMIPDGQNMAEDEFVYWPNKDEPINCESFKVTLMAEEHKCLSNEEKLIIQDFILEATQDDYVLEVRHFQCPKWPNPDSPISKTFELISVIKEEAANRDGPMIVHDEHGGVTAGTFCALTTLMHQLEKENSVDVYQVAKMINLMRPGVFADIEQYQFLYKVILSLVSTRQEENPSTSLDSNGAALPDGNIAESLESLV
T1 sequence (P23468 21-1912): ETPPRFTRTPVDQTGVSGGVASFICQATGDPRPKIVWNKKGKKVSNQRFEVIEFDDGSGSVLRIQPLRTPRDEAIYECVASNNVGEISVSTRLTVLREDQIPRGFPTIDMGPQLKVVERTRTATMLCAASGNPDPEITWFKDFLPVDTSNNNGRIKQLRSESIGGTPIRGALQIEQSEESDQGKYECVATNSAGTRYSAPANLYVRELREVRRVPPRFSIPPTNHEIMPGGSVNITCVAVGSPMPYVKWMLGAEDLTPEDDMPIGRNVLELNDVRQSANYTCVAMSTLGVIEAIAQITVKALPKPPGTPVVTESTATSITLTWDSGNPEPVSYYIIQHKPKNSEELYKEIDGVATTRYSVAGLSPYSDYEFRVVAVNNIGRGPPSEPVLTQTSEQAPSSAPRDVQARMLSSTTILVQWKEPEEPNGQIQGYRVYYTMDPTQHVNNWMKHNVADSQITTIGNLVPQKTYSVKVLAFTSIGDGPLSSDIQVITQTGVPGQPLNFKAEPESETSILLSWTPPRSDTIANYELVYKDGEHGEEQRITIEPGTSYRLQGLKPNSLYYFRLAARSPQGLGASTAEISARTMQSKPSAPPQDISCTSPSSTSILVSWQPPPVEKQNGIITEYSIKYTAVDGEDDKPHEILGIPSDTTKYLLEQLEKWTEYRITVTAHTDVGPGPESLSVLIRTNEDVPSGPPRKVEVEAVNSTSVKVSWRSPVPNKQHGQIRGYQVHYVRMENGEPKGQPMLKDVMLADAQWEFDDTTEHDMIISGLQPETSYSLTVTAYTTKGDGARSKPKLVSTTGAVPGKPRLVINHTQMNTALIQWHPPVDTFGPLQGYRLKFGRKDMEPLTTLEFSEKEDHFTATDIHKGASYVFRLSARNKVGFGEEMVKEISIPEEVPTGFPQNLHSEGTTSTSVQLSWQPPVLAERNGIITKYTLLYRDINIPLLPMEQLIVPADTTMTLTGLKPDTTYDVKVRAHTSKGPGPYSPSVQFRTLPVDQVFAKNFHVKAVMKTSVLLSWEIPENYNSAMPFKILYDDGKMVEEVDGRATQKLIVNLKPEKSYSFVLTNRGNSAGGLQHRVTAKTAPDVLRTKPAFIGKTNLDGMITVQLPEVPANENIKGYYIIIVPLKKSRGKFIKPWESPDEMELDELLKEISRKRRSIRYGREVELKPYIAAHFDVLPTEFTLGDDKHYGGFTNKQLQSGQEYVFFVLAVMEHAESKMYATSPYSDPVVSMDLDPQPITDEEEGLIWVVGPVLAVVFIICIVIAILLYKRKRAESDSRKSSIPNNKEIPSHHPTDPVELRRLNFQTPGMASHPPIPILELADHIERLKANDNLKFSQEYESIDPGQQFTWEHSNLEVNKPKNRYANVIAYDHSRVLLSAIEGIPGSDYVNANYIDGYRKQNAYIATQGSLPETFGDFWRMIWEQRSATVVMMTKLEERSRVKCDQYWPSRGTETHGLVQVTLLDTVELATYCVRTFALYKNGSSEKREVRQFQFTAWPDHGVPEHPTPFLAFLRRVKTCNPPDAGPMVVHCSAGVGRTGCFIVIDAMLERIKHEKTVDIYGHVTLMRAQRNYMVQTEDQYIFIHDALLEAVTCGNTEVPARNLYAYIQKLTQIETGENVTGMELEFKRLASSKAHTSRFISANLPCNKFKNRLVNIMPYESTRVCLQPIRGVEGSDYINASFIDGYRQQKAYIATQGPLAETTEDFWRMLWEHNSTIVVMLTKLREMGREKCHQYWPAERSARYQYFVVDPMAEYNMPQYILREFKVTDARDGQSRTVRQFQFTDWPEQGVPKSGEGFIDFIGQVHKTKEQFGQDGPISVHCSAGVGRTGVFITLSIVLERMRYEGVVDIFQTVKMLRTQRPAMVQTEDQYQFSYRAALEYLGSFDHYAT

B1: SLITRK2 extracellular domain (receptor, human, UniProt Q9H156 22-621, looked up)
chain: RKTAKDICKIRCLCEEKENVLNINCENKGFTTVSLLQPPQYRIYQLFLNGNLLTRLYPNEFVNYSNAVTLHLGNNGLQEIRTGAFSGLKTLKRLHLNNNKLEILREDTFLGLESLEYLQADYNYISAIEAGAFSKLNKLKVLILNDNLLLSLPSNVFRFVLLTHLDLRGNRLKVMPFAGVLEHIGGIMEIQLEENPWNCTCDLLPLKAWLDTITVFVGEIVCETPFRLHGKDVTQLTRQDLCPRKSASDSSQRGSHADTHVQRLSPTMNPALNPTRAPKASRPPKMRNRPTPRVTVSKDRQSFGPIMVYQTKSPVPLTCPSSCVCTSQSSDNGLNVNCQERKFTNISDLQPKPTSPKKLYLTGNYLQTVYKNDLLEYSSLDLLHLGNNRIAVIQEGAFTNLTSLRRLYLNGNYLEVLYPSMFDGLQSLQYLYLEYNVIKEIKPLTFDALINLQLLFLNNNLLRSLPDNIFGGTALTRLNLRNNHFSHLPVKGVLDQLPAFIQIDLQENPWDCTCDIMGLKDWTEHANSPVIINEVTCESPAKHAGEILKFLGREAICPDSPNLSDGTVLSMNHNTDTPRSLSVSPSSYPELHTEVPLSVL
notes: extracellular domain; Soluble query, streptavidin tetramer; also called SLITKR2
- binding result (PTPRD expressed on cells): binds
- binding result (PTPRS expressed on cells): binds
- binding result (PTPRG expressed on cells): no binding
- binding result (PTPRM expressed on cells): no binding
- binding result (PTPRO expressed on cells): no binding
- binding result [1]: no binding
- binding result (PTPRF expressed on cells): no binding
- binding result (PTPRT expressed on cells): no binding

B2: BTN2A2 extracellular domain (receptor, human, UniProt Q8WVV5 33-265, looked up)
chain: QFTVVGPANPILAMVGENTTLRCHLSPEKNAEDMEVRWFRSQFSPAVFVYKGGRERTEEQMEEYRGRITFVSKDINRGSVALVIHNVTAQENGIYRCYFQEGRSYDEAILRLVVAGLGSKPLIEIKAQEDGSIWLECISGGWYPEPLTVWRDPYGEVVPALKEVSIADADGLFMVTTAVIIRDKYVRNVSCSVNNTLLGQEKETVIFIPESFMPSASPWMVALAVILTASPWM
notes: extracellular domain; Soluble query, streptavidin tetramer
- binding result [2]: no binding

B3: VSIG8-FLAG (receptor, human, UniProt P0DPA2 22-414, looked up)
immunoprecipitated protein: VRINGDGQEVLYLAEGDNVRLGCPYVLDPEDYGPNGLDIEWMQVNSDPAHHRENVFLSYQDKRINHGSLPHLQQRVRFAASDPSQYDASINLMNLQVSDTATYECRVKKTTMATRKVIVTVQARPAVPMCWTEGHMTYGNDVVLKCYASGGSQPLSYKWAKISGHHYPYRAGSYTSQHSYHSELSYQESFHSSINQGLNNGDLVLKDISRADDGLYQCTVANNVGYSVCVVEVKVSDSRRIGVIIGIVLGSLLALGCLAVGIWGLVCCCCGGSGAGGARGAFGYGNGGGVGGGACGDLASEIREDAVAPGCKASGRGSRVTHLLGYPTQNVSRSLRRKYAPPPCGGPEDVALAPCTAAAACEAGPSPVYVKVKSAEPADCAEGPVQCKNGLLV
notes: full-length, tagged; also called VSIG8 full-length (co-IP)
- binding result [3]: no binding
